Test results reported in patent CN113307874A (GUANGZHOU EXCELMAB BIOMEDICAL TECH CO LTD, dated 2021).

Legend:
[1] = biological target: T1, 人LAG3抗原 (ACRO, Cat.LA3-H5222) (human, UniProt P18627 23-450); assay: indirect ELISA, coated human LAG3
T1 construct: Bought protein; also called human LAG3 antigen
T1 sequence (looked up): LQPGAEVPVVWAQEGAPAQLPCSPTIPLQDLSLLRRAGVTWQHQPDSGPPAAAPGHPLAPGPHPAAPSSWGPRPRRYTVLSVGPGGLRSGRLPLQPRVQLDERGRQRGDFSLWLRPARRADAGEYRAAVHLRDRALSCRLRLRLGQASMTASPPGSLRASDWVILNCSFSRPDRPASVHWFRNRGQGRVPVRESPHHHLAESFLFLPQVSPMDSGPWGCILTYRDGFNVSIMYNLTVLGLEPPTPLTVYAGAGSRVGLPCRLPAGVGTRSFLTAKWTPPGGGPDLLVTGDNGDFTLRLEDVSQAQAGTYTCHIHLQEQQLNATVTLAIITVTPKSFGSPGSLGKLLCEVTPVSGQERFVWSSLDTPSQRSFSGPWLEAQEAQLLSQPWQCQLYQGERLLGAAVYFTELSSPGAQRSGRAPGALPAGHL

[2] = biological target: T2, 过表达人LAG3抗原的Jurkat/LAG3细胞表面的人LAG3 (human, UniProt P18627 23-525); assay: indirect flow cytometry on Jurkat/LAG3 cells
T2 construct: whole, on cells; also called 过表达人LAG3的Jurkat细胞
T2 sequence (looked up): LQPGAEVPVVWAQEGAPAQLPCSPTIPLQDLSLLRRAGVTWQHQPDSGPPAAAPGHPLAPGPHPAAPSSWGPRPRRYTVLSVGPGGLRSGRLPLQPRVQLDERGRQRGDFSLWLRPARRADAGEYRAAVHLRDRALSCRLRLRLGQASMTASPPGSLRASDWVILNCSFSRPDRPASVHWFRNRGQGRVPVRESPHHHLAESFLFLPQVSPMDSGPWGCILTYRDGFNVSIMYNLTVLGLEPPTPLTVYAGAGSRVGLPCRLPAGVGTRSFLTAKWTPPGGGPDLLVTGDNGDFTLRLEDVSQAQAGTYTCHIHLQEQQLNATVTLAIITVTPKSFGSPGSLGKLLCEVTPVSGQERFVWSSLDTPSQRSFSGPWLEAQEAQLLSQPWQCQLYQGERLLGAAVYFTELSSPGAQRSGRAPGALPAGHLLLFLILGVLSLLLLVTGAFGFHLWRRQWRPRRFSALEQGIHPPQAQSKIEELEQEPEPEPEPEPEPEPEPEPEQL

binding result [1]: binds
binding result [2]: binds
B1: 鼠源抗LAG3抗体 mL42 (antibody, V domains shown)
VH: EVQLQQSGAELVRPGASVKLSCKALGYTFTDYEVHWLKQTPVRGLEWIGAIHPGSGGAAYNQKVKGKATLTADKSSSTAYMELSVLTSEDSAVYYCTSYGWNDWGQGTTLTVSS
VL: DILMNQSHKFMSTSVGDRVSIACKASQDVSTAVAWYQQKPGQSPKLLISWASTRHTGVPDRFAGSGSGTDFTLTINNVQSEDLADYFCQQYSSYPYTFGGGTKLELER
notes: detected with anti-human IgG secondary antibodies
